The results in this text go back to PMC12239813.

For this test, the target named is human FLT3 receptor (human) (UniProt P36888). As to the kind of experiment: SPR. For orientation: Surface plasmon resonance follows binding to a sensor surface in real time, without labels.
Sequence of UniProt P36888 (P36888 27-993): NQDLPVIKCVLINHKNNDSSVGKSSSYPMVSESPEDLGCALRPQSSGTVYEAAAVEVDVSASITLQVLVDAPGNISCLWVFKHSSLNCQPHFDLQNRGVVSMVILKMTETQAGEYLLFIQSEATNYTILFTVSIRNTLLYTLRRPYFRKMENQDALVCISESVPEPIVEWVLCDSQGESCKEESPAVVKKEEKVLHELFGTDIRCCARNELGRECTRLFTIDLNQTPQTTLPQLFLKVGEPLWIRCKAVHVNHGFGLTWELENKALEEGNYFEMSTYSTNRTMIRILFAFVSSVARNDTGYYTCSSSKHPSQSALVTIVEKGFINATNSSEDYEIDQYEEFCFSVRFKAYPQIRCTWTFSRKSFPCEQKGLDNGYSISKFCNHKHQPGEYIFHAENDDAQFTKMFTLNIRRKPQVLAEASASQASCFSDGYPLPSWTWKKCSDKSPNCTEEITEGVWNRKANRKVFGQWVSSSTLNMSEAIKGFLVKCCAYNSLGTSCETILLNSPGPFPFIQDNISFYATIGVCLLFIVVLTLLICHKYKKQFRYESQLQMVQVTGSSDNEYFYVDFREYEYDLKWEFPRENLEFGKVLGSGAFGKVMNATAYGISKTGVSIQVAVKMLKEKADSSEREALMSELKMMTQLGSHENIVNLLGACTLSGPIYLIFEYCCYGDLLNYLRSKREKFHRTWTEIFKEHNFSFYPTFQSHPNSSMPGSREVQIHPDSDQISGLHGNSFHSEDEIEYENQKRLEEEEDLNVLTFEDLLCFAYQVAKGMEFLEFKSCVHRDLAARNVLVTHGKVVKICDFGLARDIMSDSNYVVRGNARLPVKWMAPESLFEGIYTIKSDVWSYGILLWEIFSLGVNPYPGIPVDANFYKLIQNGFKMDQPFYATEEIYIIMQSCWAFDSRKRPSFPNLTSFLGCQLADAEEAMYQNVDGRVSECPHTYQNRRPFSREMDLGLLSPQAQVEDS

The Kd is the constant that tells how readily two partners part at equilibrium. Low readings indicate tighter binding, high ones weaker binding. The koff is the rate constant with which the complex falls apart. A low value points to a long-lived complex. On to “human FLT3L protein (from UniProt P49771 27-184) (ligand)”, for which the Kd was 22.3 nM and the koff is 0.812 s⁻¹.
